Test results taken from FireProtDB (doi:10.1093/oxfordjournals.jbchem.a021544).

B1: Lysozyme C, P61626 (parent)
chain: MKALIVLGLVLLSVTVQGKVFERCELARTLKRLGMDGYRGISLANWMCLAKWESGYNTRATNYNAGDRSTDYGIFQINSRYWCNDGKTPGAVNACHLSCSALLQDNIADAVACAKRVVRDPQGIRAWVAWRNRCQNRDVRQYVQGCGV

Variants of: B1
Conditions: Homo sapiens; pH 2.67; Thermal; DSC; glycine 0.05 M; reversible: yes; structure 1LZ1; whole UniProt chain shown

Variant	Tm [°C]	heat capacity change of unfolding [kcal/mol/K]	unfolding enthalpy (calorimetric) [kcal/mol]	unfolding enthalpy (van 't Hoff) [kcal/mol]
I74T	51.8	1	87.8	90.9

Same assay, conditions: Homo sapiens; pH 2.7; 64.9 °C; Thermal; DSC; glycine 0.05 M; reversible: yes; structure 1LZ1; whole UniProt chain shown

Variant	ddG of mutation (higher = less stable) [kcal/mol]	heat capacity change of unfolding [kcal/mol/K]
I74T	3.64	1.24

Same assay, conditions: Homo sapiens; pH 2.7; Thermal; DSC; glycine 0.05 M; reversible: yes; structure 1LZ1; whole UniProt chain shown

Variant	Tm [°C]	change of melting temperature, mutant - wild type (higher = more stable) [°C]	heat capacity change of unfolding [kcal/mol/K]	unfolding enthalpy (calorimetric) [kcal/mol]	unfolding enthalpy (van 't Hoff) [kcal/mol]
I74T	52.4	-12.5	1.24	102	108

Same assay, conditions: Homo sapiens; pH 2.98; Thermal; DSC; glycine 0.05 M; reversible: yes; structure 1LZ1; whole UniProt chain shown

Variant	Tm [°C]	heat capacity change of unfolding [kcal/mol/K]	unfolding enthalpy (calorimetric) [kcal/mol]	unfolding enthalpy (van 't Hoff) [kcal/mol]
I74T	58	1.2	93.3	102

Same assay, conditions: Homo sapiens; pH 3.11; Thermal; DSC; glycine 0.05 M; reversible: yes; structure 1LZ1; whole UniProt chain shown

Variant	Tm [°C]	heat capacity change of unfolding [kcal/mol/K]	unfolding enthalpy (calorimetric) [kcal/mol]	unfolding enthalpy (van 't Hoff) [kcal/mol]
I74T	60.5	1.15	97.6	103
